# Test results: the DeepSol protein solubility set
# Test: soluble on expression in E. coli; label from the status in PepcDB or PDB records
row,Sequence,soluble on expression in E. coli
1,MAKSEEIIRERYKVMAPRIIKALNQRNFEAYFCETSEKAVECALSLIPQGASVAWGGSMTLEEIGLIQRLKEGNYQVIDRDTAKSQEERFSLMRQALLSDVYLASVNAMSEDGIMVNIDGRGNRISAIAFGPKTVILVVGMNKICRDLESARKRAHTYAAPNNALRLGLELPCTKTGCCFDCNKNNPSSICAQIVEMHSSIVPGRIKVILVGENLGL,soluble
2,MNIKRNIIFALESRKKDGVLIVENVPIRMRVNFASQRIEFTTGYRIDVAKWDADKQRVKNGCTNKLKQSASEINAALLGYYTELQEVFKRFEVAEVMPSPADVKSAFNARHRSDDVQTEQTSDKPDASAEFYKAFDEFVRVCGRQNDWTHATYEKFAAVKNHLRSFRADLSFSFFNEVGLTEYVRYLREVRKMRNSTIGKQLSFLKWFLRWSFGQGIHSNNAYDTFRPKLKDTQKKIIFLTWEELTKLREFEIPPAKQSLDRVRDVFLFQCFTGLRYSDVYNLRRSDIKEDHIEVTTIKTSDSLVIELNKHSKAILEKYQDVVFEHDKALPVITNQKMNEYLKELAELAGINEPIRQTYYKGNERIDEVTPKYALLGTHAGRRTFICNALALGIPPQVVMKWTGHSDYKAMKPYIDIADDIKANAMSKFNQL,not soluble
3,MGSDKIHHHHHHMKKATDKNPTTTSKPNTITPLFTTNYNVYINHTDAGGIVYHANHLVFFENCRRDWFTQLGLNGYFLESNDGQIQHFVVTQADLQYKHAILLDEVINVRIDNVEIKPASIVFYQSIYRQQSQDNTANNAKAVLLSSTKIVVACVQNQITPDSIDNNASNNTAPMRPVRVPQKLRDAIERAIAEHIVEIL,not soluble
4,MNRSIDSIIAKKVSHDVGILIFQYLNDIEPLIQQSLTAAKLKDFYGLKGKYSKGRFVCPFHHGADNPTSLSMNDNKRCFHCNACGKSGTYLEFIMYMQNISGRNSYNDAKIFAANHFTKLNLGFNSIADFEQKLKDKILERYRKTNSLRYTDYYDIWLLPERYFSSKEQSQVRQYQEEQQTKPSLEVSLSNSTNKPGFILESLDLEMTIRHLKAQNIIVNGITDYDEAVQVAKNSKLIKDFTKNADKLNSVDKLTDYMSKKYNIDIDTALKYGLIFFDKSSQHQLYYSDFFMLNNRVLFPVRDHETGIIVGYQCRRTDLSAPRHYKYLNITDYQDNLITNENGTTYRDFVPFKVGNFLFNLYELKGKCINTLWITEGIADAIKLSSMGYDAVSLGQANLTDYQIYLIDKYFGKDVTLNLFFDNDDNKIGQNKSIAAAYRLWQFGFRNIRIINTFKEMGKDITDCSVKLHDDDMLRLFINHWEKQAYSFAPASNEDLSALLKTGLYSESEILFIDPRDVERIISFGEMLNKYLDFKNMTYQQLKLLKKLCSFKEDEIKILLSLSTKDFLDVQNTNEQSCHKEQL,not soluble
5,MGSDKIHHHHHHMNTAPFKLEADFASALPTMAAPWQGEEAPNPELVILNDDLAYSLGLDPTWLRTPEGVQFLLGLNPEPLTKAVAQAYSGHQFGQFVASLGDGRALLLGEARSADGVLHDIHLKGSGRTQFSRGADGRAVLGPVLREYIISEAMHALGVPTTRSLAVISTGRKIQRGSVAPGAVLVRVATSLIRVGSFQYSNISGGIELSQHLANYTITRHFPSLVAELSAPTPATYVSLFKAILQRQADTVGKWTRLGFVHGALNTDNTLISGETVDYGPCAFMERYRGDAKFSSIDTYGRYKFENQPMILGWNMARLVETLLPLLGATPDEGMTAAQEALVEFDDLCEQAIRKEFATALGLDESDTGTVEQFRELLYLHNPDITTLLRALTDNTAPPSGFEAFVHDWKTQDPDIEAMRAVNPLFIPRNHLVEAALADAVEGNLEKFHELLAAVTNPFDPTAGPDELRLPSEEGFEEDYMTFCGT,not soluble
6,MGSDKIHHHHHHMDEQTHTHLSRRRTLTASAGVLSAGLAGCITSGDTDGDPESGPTVAVASFFSFYDFARKIVADTPITVRNLIPTGLHGHGWEPNASITKEILDADALIHVGPDFQPWVDRAIESLDDDDADTRRINVRDGVELVDLAASLDRDEEGIGQNRGKDPHFWLDPNRAKQSIDNLTEGFVQLAPSHENTLRTNAAAYKSGVLDELDDAYAAIFDRADRDVVQLAAHNAFQYLGTAYDIEMRPLVVNLAASGTVKASDIMDAKQTIDDNDITYIGAAVFETRRPAEQLLSETDVEAYYPVTPYAGVREDWVQQGWGYEEIARNINMPTFKLLLGNAAPDDVGGAEWNATWRNFE,not soluble
7,RSVAYDLIFGNKNTTKYYAQFVKEHKTHLYEQIKQINNDEFRFVEKTKRHNLG,not soluble
8,MAHHHHHHMSDLSTAHASQGYRFDPSRMNGCLHDTIIFKRLPSRLRHSTGSRTRSLRVNRPAVE,soluble
9,MSKRDYYETLGVSQDASEKEVKKAYKKLAMKYHPDRTQGDKSKEETFKEVKEAYEILNDDQKRAAYDQYGHAAFEQGGNGGGGGGHGGGFGQDFGDIFGDIFGGGGGGRGRQRQQRGSDLRYNVDLSLEDAVKGKSLEIKVPTYVSCEPCDGSGAKKGTSAKTCSTCHGHGQVQMRQGLFAVQQTCPTCSGKGKVIADKCTSCRGQGRVEKTKTLSVKIPAGVDTGDRIRLSGEGEAGEHGAPAGDLYVQVNVRDHEIFVRDENHLYCEVPISFVTAALGGDIEVPTLGGKVKLKVPKETQTGKMFRLRGKGVKSVRSSTTGDLMCKVVIETPVNLSGDQADLLRQLEEKMASSSKKHSPKETGFFDGVKKFFDDLKS,not soluble
10,MKYLSAKSKLNIDAQDGGFTTTLLSYCLENGILDAVVVVGDKNWKPVAYLATTPTELLKSTKSKYSISPNNKLLEYATENYDKVGLVGLPCHILGGLQFDLTLKVGLFCTKNFYYDTIKSIIKERFGVNIDEVAKMNITKGKFVVETLKKKGFAGTEKVVYEIPIKEIEKLCNLGCRVCTDFSAKYADVSVGSVGSEDGWNTVIVRNKMVEDIINEMAEKGLIEVKETVDIKAIEKLENIKKKNEEINKCSAYFAVCPALFLEHHHHHH,not soluble
11,SAHSAAAVPLGALEQGCPIRVEHDRRRRQFTVRLNGCHDRAVLLYEYVGKRIVDLQHTEVPDAYSGRGIAKHLAKAALDFVVEEDLKAHLTCWYIQKYVKENPLPQYLERLQP,soluble
12,MARNVKGYASTLTWTITRNTLNFLWEQGFKMRINREEILDLMKNAPLKELGQRALRVKQRLHPENLTTFIVDRNINYTNICFVDCKFCAFKRTLKEKDAYVLSYEEIDQKIEELLAIGGTQILFQGGVHPQLKIDYYENLVSHIAQKFPTITIHGFSAVEIDYISKISKLSLKEVLERLKNAGLSSIPGAGAEVLSDRVRDVIAPKKLSSDRWIEVHRMAHLCGIKSTATMMFGSVDNEEDVVEHLQRVRDLQDETGGFRAFILWSFQPNNTPLKEEIPSIKKASSNRYLRYLACSRIFLDNIQNIQSSWVTQGSMIGQLALLFGANDLGSVMMEENVVKAAGTSFCMNEAGMIELIEDIGSVAAKRNTAYEILKRYPAKAKV,not soluble
13,MHHHHHHSSGVDLGTENLYFQSMQGTNPYLTFHCVNQGTILLDLAPEDKEYQSVEEEMQSTIREHRDGGNAGGIFNRYNVIRIQKVVNKKLRERFCHRQKEVSEENHNHHNERMLFHGSPFINAIIHKGFDERHAYIGGMFGAGIYFAENSSKSNQYVYGIGGGTGCPTHKDRSCYICHRQMLFCRVTLGKSFLQFSTIKMAHAPPGHHSVIGRPSVNGLAYAEYVIYRGEQAYPEYLITYQIMKPEAPSQTATAAEQ,soluble
14,GPLGSKLNDILHVYEKSKERELQSQLFNAWRNRFCFYTEECNIQAISKRNYQLEKMVLKKFRERLLEIVKSEE,soluble
15,MTAQLQSESTSKIVLVTGGAGYIGSHTVVELIENGYDCVVADNLSNSTYDSVARLEVLTKHHIPFYEVDLCDRKGLEKVFKEYKIDSVIHFAGLKAVGESTQIPLRYYHNNILGTVVLLELMQQYNVSKFVFSSSATVYGDATRFPNMIPIPEECPLGPTNPYGHTKYAIENILNDLYNSDKKSWKFAILRYFNPIGAHPSGLIGEDPLGIPNNLLPYMAQVAVGRREKLYIFGDDYDSRDGTPIRDYIHVVDLAKGHIAALQYLEAYNENEGLCREWNLGSGKGSTVFEVYHAFCKASGIDLPYKVTGRRAGDVLNLTAKPDRAKRELKWQTELQVEDSCKDLWKWTTENPFGYQLRGVEARFSAEDMRYDARFVTIGAGTRFQATFANLGASIVDLKVNGQSVVLGYENEEGYLNPDSAYIGATIGRYANRISKGKFSLCNKDYQLTVNNGVNANHSSIGSFHRKRFLGPIIQNPSKDVFTAEYMLIDNEKDTEFPGDLLVTIQYTVNVAQKSLEIVYKGKLTAGEATPINLTNHSYFNLNKPYGDTIEGTEIMVRSKKSVDVDKNMIPTGNIVDREIATFNSTKPTVLGPKNPQFDCCFVVDENAKPSQINTLNNELTLIVKAFHPDSNITLEVLSTEPTYQFYTGDFLSAGYEARQGFAIEPGRYIDAINQENWKDCVTLKNGETYGSKIVYRFS,soluble
16,MGHHHHHHSHGSSAEIAATLGLPVVLVVDVRGMSQSVGAVVRGFATADPHVRIAGVILNKVGTDRHAEVCREAVEAVGVRVLGAIP,not soluble
17,GPGSMDEFVYNRCSLNPIHWVLMLKGCLVDLFFSVRPINFSYSRVGMTNLAGERDQAACLREIRRAVRIIEGRKRTVATGTNKDSFQDMDSRCHTPERPLRLHLVLFGFSRGATTTFYTAMKLPPELATYVSLVVVEAAFDTLHNVIESSCWFPSFVLWFFRTFCDYSGEDAYKYDRNQIHLRCPIAFVMSVKDTRVPNELTQRLIDNVKADCPQIPAVEVLQLKHSRHPLMAVGNREDQDAYVAFMEGLYDRYCN,not soluble
18,SKDPAFTALLTTQLQVQREIVNKHNELRKAVSPPASNMLKMEWSREVTTNAQRWANKCTLQHSDPEDRKTSTRCGENLYMSSDPTSWSSAIQSWYDEILDFVYGVGPKSPNAVVGHYTQLVWYSTYQVGCGIAYCPNQDSLKYYYVCQYCPAGNNMNRKNTPYQQGTPCAGCPDDCDKGLCTNSCQYQDLLSNCDSLKNTAGCEHELLKEKCKATCLCENKIY,soluble
19,MGSDKIHHHHHHMTYQAREAGLKEVEQLVHEQAVYQYLQENNEGGQMDKDQMLFLHEAISGSDLTDAAAYRVVSATLYMILAHDTHEKIDEPGDVVKLTRKEQELTVLAGDFYSALYYRTLAELEMIPLLRALQSGVQETNTAKTNIYQLHVATDEEYLSQLTLTNAAIFAKFAKYFMKDETFIALGCQFFLLKRLQTELATYKEIGASRLKRAFDHGYFAKEAVSNFESWLVAIIRDVKSEVERLKTEAEPLSNLLEKRIIEVIND,not soluble
20,VQVGNCLQVMWLADRHSDPELYTAAKHCAKTHLAQLQNTEEFLHLPHRLLTDIISDGVPCSQNPTEAIEAWINFNKEEREAFAESLRTSLKEIGENVH,soluble
21,MGSSHHHHHHSSGLVPRGSHMLEDPGEGQDIWDMLDKGNPFQFYLTRVSGVKPKYNSGALHIKDILSPLFGTLVSSAQFNYCFDVDWLVKQYPPEFRKKPILLVHGDKREAKAHLHAQAKPYENISLCQAKLDIAFGTHHTKMMLLLYEEGLRVVIHTSNLIHADWHQKTQGIWLSPLYPRIADGTHKSGESPTHFKANLISYLTAYNAPSLKEWIDVIHKHDLSETNVYLIGSTPGRFQGSQKDNWGHFRLKKLLKDHASSMPNAESWPVVGQFSSVGSLGADESKWLCSEFKESMLTLGKESKTPGKSSVPLYLIYPSVENVRTSLEGYPAGGSLPYSIQTAEKQNWLHSYFHKWSAETSGRSNAMPHIKTYMRPSPDFSKIAWFLVTSANLSKAAWGALEKNGTQLMIRSYELGVLFLPSALGLDSFKVKQKFFAGSQEPMATFPVPYDLPPELYGSKDRPWIWNIPYVKAPDTHGNMWVPS,soluble
